How the values were obtained:
[1] = test system: MDA-MB231 breast cancer cells; assay: short-term cell number WST assay / XTT proliferation assay of small peptides; assay type: cell-based, human; settings: 300 ng/ml
Excerpt: FIG. 6 presents diagrams showing the tumor suppressive impact of small peptides derived from ITIH5 on aggressive MDA-MB231 breast cancer cells. Growth inhibition mediated by chemically synthesized ITIH5-derived peptides using a short-term cell number WST assay.
These small protein fragments can be further optimized (stabilization, modification) to obtain suitable candidates for novel anti-tumor drugs. Use of biological drugs in targeted cancer therapy is a strongly growing area in cancer care.

[2] = test system: MDA-MB231 breast cancer cells; assay: short-term cell number assay (CASY cell counter); assay type: cell-based, human; settings: for inhibition of tumor cell growth: dose dependent, maximal effect
Description: (§1) Various functional readout systems were available to determine the tumor suppressive impact of 1-681_ITIH5 treatment in vitro: A) Cell number assay: Numbers of living cells were quantified after four days of culturing using the CASY cell counter and analyzer (Roche Diagnostics, Mannheim, Germany). B) XTT proliferation assay: the cell proliferation KIT (XTT) was used according to the manufacturer's recommendations (Roche). C) Colony formation assay: 1×10^3 cells were seeded into six-well plates. After 14 days of culturing grown colonies were fixed with 3.5% formaldehyde/80% methanol and stained with 0.1% crystal violet. D) Wound healing assay: a confluent monolayer was scratched with a pipette tip. Afterwards cell migration within the wounded area was analyzed by using a light microscope over three days.
as §1, with “Highly purified peptides were used for functional in vitro validation. Various” for “Various”, “ITIH5 protein subfragments” for “1-681_ITIH5 treatment”, “B)” for “B) XTT proliferation assay: the cell proliferation KIT (XTT) was used according to the manufacturer's recommendations (Roche). C)”, “violet. C) In order to ensure specificity of observed effects of the ITIH5 subfragments a LDH Cytotoxicity Detection Kit (Roche) was performed according to the manufacturer's recommendations.” for “violet.”

[3] = test system: MDA-MB231 breast cancer cells; assay: LDH Cytotoxicity Detection assay; assay type: cell-based, human; settings: after 72 h vs controls
Description: (§2) In order to ensure specificity of observed effects of 1-681_ITIH5, a LDH Cytotoxicity Detection assay (Roche) was performed according to the manufacturer's recommendations. Furthermore MDA-MB231 single cell clones were generated which stably express ITIH5 protein under a strong CMV promoter. These endogenous ITIH5-positive clones are optimal control cells, i.e. those ITIH5-positive cells should not show further sensitivity against 1-681_ITIH5 in growth inhibitory experiments.
Highly purified peptides were used for functional in vitro validation. Various functional readout systems were available to determine the tumor suppressive impact of ITIH5 protein subfragments in vitro: A) Cell number assay: Numbers of living cells were quantified after four days of culturing using the CASY cell counter and analyzer (Roche Diagnostics, Mannheim, Germany). B) Colony formation assay: 1×10^3 cells were seeded into six-well plates. After 14 days of culturing grown colonies were fixed with 3.5% formaldehyde/80% methanol and stained with 0.1% crystal violet. C) In order to ensure specificity of observed effects of the ITIH5 subfragments a LDH Cytotoxicity Detection Kit (Roche) was performed according to the manufacturer's recommendations. […] Afterwards cell migration within the wounded area was analyzed by using a light microscope over three days.

[4] = test system: MDA-MB231 breast cancer cells; assay: scratch wound healing assay (cell migration); assay type: cell-based, human; settings: over 3 days
Description: as §1
Highly purified peptides were used for functional in vitro validation. Various functional readout systems were available to determine the tumor suppressive impact of ITIH5 protein subfragments in vitro: A) Cell number assay: Numbers of living cells were quantified after four days of culturing using the CASY cell counter and analyzer (Roche Diagnostics, Mannheim, Germany). B) Colony formation assay: 1×10^3 cells were seeded into six-well plates. […] Afterwards cell migration within the wounded area was analyzed by using a light microscope over three days.

A549 lung cancer cells [5] = assay: short-term cell number assay (CASY cell counter); assay type: cell-based, human; settings: dose dependent, maximal effect
Description: (§3) Highly purified peptides were used for functional in vitro validation. Various functional readout systems were available to determine the tumor suppressive impact of ITIH5 protein subfragments in vitro: A) Cell number assay: Numbers of living cells were quantified after four days of culturing using the CASY cell counter and analyzer (Roche Diagnostics, Mannheim, Germany). B) Colony formation assay: 1×10^3 cells were seeded into six-well plates. After 14 days of culturing grown colonies were fixed with 3.5% formaldehyde/80% methanol and stained with 0.1% crystal violet. C) In order to ensure specificity of observed effects of the ITIH5 subfragments a LDH Cytotoxicity Detection Kit (Roche) was performed according to the manufacturer's recommendations. D) Wound healing assay: a confluent monolayer was scratched with a pipette tip. Afterwards cell migration within the wounded area was analyzed by using a light microscope over three days.

A549 lung cancer cells [6] = assay: LDH Cytotoxicity Detection assay; assay type: cell-based, human; settings: after 72 h vs controls
Description: as §3

[7] = test system: MDA-MB231 breast cancer cells; assay: long-term colony formation assay; assay type: cell-based, human; settings: p<0.001
Description: as §1

[8] = stability in supernatant of treated cancer cells (western blot); assay type: in vitro ADME; settings: 1 μg/ml added to supernatant of MDA-MB231 cells; western blotting
Description: FIG. 2 is a diagram showing the performance of the recombinant 1-681_ITIH5 in vitro. A) Persisting stability of 1-681_ITIH5 over 48 h in vitro. 1 μg/ml of 1-681_ITIH5 was added to the supernatant of MDA-MB231 breast cancer cells. To the given time points 1 ml of the supernatant was harvested and non-degraded 1-681_ITIH5 was isolated and analyzed by western blotting (as shown). B) LDH cytotoxicity assay.
Before applying 1-681_ITIH5 in vitro both the stability and the purity were tested by using a western blot analysis.

[9] = test system: MDA-MB231 endogenously ITIH5 positive cells; assay: colony formation assay in ITIH5-expressing single cell clones; assay type: cell-based, human; settings: MDA-MB231 clones stably expressing ITIH5
Description: as §1, §2

[10] = test system: BT20 breast cancer cell line; assay: colony formation assay; assay type: cell-based, human
Description: as §1

[11] = test system: T47D breast cancer cell line; assay: colony formation assay; assay type: cell-based, human
Description: as §1

[12] = test system: SK-MES1 lung cancer cells; assay: XTT proliferation assay; assay type: cell-based, human; settings: dose-dependent
Description: as §1

## #98: chemically synthesized peptide derived from the ITIH5 vWA domain (GDIQVLNGYFVHYFAPKDLP; isolated peptide)
[1]
  cancer cell growth, single peptides: significant impairment of cancer cell growth

## #102: chemically synthesized peptide derived from the ITIH5 vWA domain (YFAPKDLPPLPKNVVFVLDS; isolated peptide)
[1]
  cancer cell growth, single peptides: significant impairment of cancer cell growth

## #32: chemically synthesized peptide derived from the ITIH5 VIT-domain (MLNRASEDQDIEFQMQIPAA; isolated peptide)
[1]
  cancer cell growth, single peptides: significant impairment of cancer cell growth

## #111: chemically synthesized peptide derived from the ITIH5 vWA domain (KLRQTKDALFTILHDLRPQD; isolated peptide)
[1]
  cancer cell growth, single peptides: significant impairment of cancer cell growth

## #26: chemically synthesized peptide derived from the ITIH5 VIT-domain (SVKSTIISRYAFTTVSCRML; isolated peptide)
[1]
  cancer cell growth, single peptides: significant impairment of cancer cell growth

## #108: chemically synthesized peptide derived from the ITIH5 vWA domain (DSSASMVGTKLRQTKDALFT; isolated peptide)
[1]
  cancer cell growth, single peptides: significant impairment of cancer cell growth

B1: 1-162_VIT: isolated recombinant polypeptide comprising only the VIT domain of ITIH5, amino acid 1 to 162 (protein)
chain: MLLLLGLCLGLSLCVGSQEEAQSWGHSSEQDGLRVPRQVRLLQRLKTKPLMTEFSVKSTIISRYAFTTVSCRMLNRASEDQDIEFQMQIPAAAFITNFTMLIGDKVYQGEITEREKKSGDRVKEKRNKTTEENGEKGTEIFRASAVIPSKDKAAFFLSYEE
modifications: VIT- domain of the inter-alpha-trypsin inhibitor heavy chain
[2]
  inhibition of tumor cell growth: up to 40%
[3]
  unspecific cytotoxicity (LDH): no unspecific cytotoxicity
[4]
  tumor cell migration / cell motility: clearly suppresses cell motility
A549 lung cancer cells [5]
  inhibition of tumor cell growth: up to 40%
A549 lung cancer cells [6]
  unspecific cytotoxicity (LDH): no unspecific cytotoxicity

B2: 213_vWA: isolated recombinant polypeptide comprising only the vWA domain of ITIH5, 213 amino acids (protein)
chain: GYFVHYFAPKDLPPLPKNVVFVLDSSASMVGTKLRQTKDALFTILHDLRPQDRFSIIGFSNRIKVWKDHLISVTPDSIRDGKVYIHHMSPTGGTDINGALQRAIRLLNKYVAHSGIGDRSVSLIVFLTDGKPTVGETHTLKILNNTREAARGQVCIFTIGIGNDVDFRLLEKLSLENCGLTRRVHEEEDAGSQLIGFYDEIRTPLLSDIRIDY
modifications: “vWA” domain of the inter-alpha-trypsin inhibitor heavy chain
[2]
  inhibition of tumor cell growth: up to 30%

B3: 1-681_ITIH5: recombinant isolated polypeptide, amino acids 1-681 of the full-length ITIH5 protein (942 amino acids) (protein)
chain: MLLLLGLCLGLSLCVGSQEEAQSWGHSSEQDGLRVPRQVRLLQRLKTKPLMTEFSVKSTIISRYAFTTVSCRMLNRASEDQDIEFQMQIPAAAFITNFTMLIGDKVYQGEITEREKKSGDRVKEKRNKTTEENGEKGTEIFRASAVIPSKDKAAFFLSYEELLQRRLGKYEHSISVRPQQLSGRLSVDVNILESAGIASLEVLPLHNSRQRGSGRGEDDSGPPPSTVINQNETFANIIFKPTVVQQARIAQNGILGDFIIRYDVNREQSIGDIQVLNGYFVHYFAPKDLPPLPKNVVFVLDSSASMVGTKLRQTKDALFTILHDLRPQDRFSIIGFSNRIKVWKDHLISVTPDSIRDGKVYIHHMSPTGGTDINGALQRAIRLLNKYVAHSGIGDRSVSLIVFLTDGKPTVGETHTLKILNNTREAARGQVCIFTIGIGNDVDFRLLEKLSLENCGLTRRVHEEEDAGSQLIGFYDEIRTPLLSDIRIDYPPSSVVQATKTLFPNYFNGSEIIIAGKLVDRKLDHLHVEVTASNSKKFIILKTDVPVRPQKAGKDVTGSPRPGGDGEGDPNHIERLWSYLTTKELLSSWLQSDDEPEKERLRQRAQALAVSYRFLTPFTSMKLRGPVPRMDGLEEAHGMSAAMGPEPVVQSVRGAGTQPGPLLKKPYQPRIKISKTSVDGD
modifications: polypeptide 1-681_ ITIH5
[2]; 100 ng/ml medium, repeated experiments
  Growth inhibition: up to 20%
[2]; 1 μg/ml medium, highly significant
  Growth inhibition: up to 50%
[7]
  colony growth after 14 days in culture (densitometrical evaluation): significantly impairs colony growth
[8]
  stability in the supernatant of treated cancer cells: ≥ 48 h
[3]
  unspecific cytotoxicity (LDH): no unspecific cytotoxicity
[9]
  growth inhibition in ITIH5-positive cells: not able to mediate growth inhibition
[10]
  colony growth: significantly reduced colony growth
[11]
  colony growth: significantly reduced colony growth
[12]
  cell growth inhibition (XTT): strongly mediates cell growth inhibition
[4]
  tumor cell migration / cell motility: impairs furthermore tumor cell migration

— US10457718B2, “Compounds for the treatment of cancer” (Rheinisch-Westfaelische Technische Hochschule Aachen, priority 2015, dated 2019)
